Measured values as given in patent US20230012273A1 (Boehringer Ingelheim, published 2023).

Columns and labels:
[1] = target: T1, cynomolgus SIRPβ1v3 (XP_005568593) extracellular domain + His-tag (cynomolgus monkey); test: SPR, antibody captured, ECD-His analyte
T1 construct: SPR analyte; also called Cyno SIRPβ1v3 XP_005568593; cynoSIRPβ1v3; not shown: His-tag
T1 chain: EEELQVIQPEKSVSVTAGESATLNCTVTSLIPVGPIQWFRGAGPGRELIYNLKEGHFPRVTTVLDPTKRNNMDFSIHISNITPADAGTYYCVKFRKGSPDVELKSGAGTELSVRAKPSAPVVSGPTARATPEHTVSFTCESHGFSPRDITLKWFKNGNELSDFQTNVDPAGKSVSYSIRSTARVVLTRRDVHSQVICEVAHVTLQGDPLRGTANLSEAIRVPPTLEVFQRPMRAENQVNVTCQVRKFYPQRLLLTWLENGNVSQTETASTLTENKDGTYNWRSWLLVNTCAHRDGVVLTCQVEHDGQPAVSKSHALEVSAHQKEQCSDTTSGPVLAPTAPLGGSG
In short: (§1)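 In HBS-EP+ (1×), captured antibodies are exposed to a twofold concentration series of SIRP extracellular domain carrying a His tag, using 300 s contact at 30 μl/min and a 600 s dissociation window.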

[2] = target: T2, cynomolgus SIRPα (NP_001271679) extracellular domain + His-tag (cynomolgus monkey); test: SPR, antibody captured, ECD-His analyte
T2 construct: SPR analyte; also called CySIRPα NP_001271679; cynoSIRPα; not shown: His-tag
T2 chain: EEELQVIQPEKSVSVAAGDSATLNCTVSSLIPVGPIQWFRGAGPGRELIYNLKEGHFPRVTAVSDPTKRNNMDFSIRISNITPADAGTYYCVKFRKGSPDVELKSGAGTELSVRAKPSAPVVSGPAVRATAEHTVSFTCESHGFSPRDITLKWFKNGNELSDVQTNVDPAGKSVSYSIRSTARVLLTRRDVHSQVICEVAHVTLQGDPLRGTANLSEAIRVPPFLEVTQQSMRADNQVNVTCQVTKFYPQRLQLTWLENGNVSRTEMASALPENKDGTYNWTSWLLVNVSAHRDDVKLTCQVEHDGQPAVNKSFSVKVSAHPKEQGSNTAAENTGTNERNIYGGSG
In short: as §1

[3] = target: T3, cynomolgus SIRPα (EGM_02252) extracellular domain + His-tag (cynomolgus monkey); test: SPR
T3 construct: SPR analyte; also called CySIRPα EGM_02252; cynoSIRPα; not shown: His-tag
T3 chain: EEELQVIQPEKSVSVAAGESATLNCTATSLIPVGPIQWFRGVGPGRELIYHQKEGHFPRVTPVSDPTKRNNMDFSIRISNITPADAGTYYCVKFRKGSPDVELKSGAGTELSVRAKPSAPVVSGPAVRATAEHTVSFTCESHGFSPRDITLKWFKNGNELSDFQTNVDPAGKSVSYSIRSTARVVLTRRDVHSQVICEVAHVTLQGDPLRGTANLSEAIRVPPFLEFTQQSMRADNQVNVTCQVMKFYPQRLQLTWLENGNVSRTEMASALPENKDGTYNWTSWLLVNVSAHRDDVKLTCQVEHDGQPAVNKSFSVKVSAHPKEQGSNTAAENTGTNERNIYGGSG
In short: as §1

[4] = target: T4, cynomolgus SIRPβ1 (XP_005568598) extracellular domain + His-tag (cynomolgus monkey); test: SPR
T4 construct: SPR analyte; also called Cyno SIRPβ1 XP_005568598; cynoSIRPβ1; not shown: His-tag
T4 chain: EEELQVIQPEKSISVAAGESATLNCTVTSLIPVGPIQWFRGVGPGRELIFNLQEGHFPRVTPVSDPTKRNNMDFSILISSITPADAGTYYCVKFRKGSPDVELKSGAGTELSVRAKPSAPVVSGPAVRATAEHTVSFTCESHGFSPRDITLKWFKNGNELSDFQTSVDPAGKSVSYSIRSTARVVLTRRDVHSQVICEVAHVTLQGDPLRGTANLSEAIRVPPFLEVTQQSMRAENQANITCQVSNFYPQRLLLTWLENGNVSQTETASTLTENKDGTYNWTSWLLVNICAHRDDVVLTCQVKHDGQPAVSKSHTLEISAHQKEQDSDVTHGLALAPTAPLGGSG
In short: as §1

[5] = target: T5, cynomolgus SIRPγ (XP_005568591) extracellular domain + His-tag (cynomolgus monkey, UniProt Q9P1W8 29-359 (human entry)); test: SPR
T5 construct: SPR analyte; also called Cyno SIRPγ XP_005568591; cynoSIRPγ; not shown: His-tag
T5 chain: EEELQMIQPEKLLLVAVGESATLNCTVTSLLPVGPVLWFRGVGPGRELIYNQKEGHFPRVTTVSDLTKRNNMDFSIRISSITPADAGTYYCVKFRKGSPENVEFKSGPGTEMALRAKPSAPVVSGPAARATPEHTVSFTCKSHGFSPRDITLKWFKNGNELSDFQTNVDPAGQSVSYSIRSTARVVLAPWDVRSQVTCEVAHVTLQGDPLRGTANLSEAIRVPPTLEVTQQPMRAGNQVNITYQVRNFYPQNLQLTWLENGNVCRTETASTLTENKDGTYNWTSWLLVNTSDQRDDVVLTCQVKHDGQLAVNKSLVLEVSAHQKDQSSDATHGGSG
In short: as §1

[6] = target: T6, human SIRPγ extracellular domain + His-tag (NP_061026.2) (human, UniProt Q9P1W8 29-360); test: SPR, Ab captured, ECD-His analyte
T6 construct: also called hSIRPγ; HuSIRPγ
In short: as §1

[7] = target: T7, human SIRPβ1 extracellular domain + His-tag (NP_006056.2) (human, UniProt O00241 30-371); test: SPR, Ab captured, ECD-His analyte
T7 construct: also called hSIRPβ1; HuSIRPβ1
In short: as §1

[8] = target: T8, human SIRPβL/SIRPβ1v3 extracellular domain + His-tag (NP_001129316.1) (human, UniProt Q5TFQ8 30-371); test: SPR, Ab captured, ECD-His analyte
T8 construct: also called hSIRPβ1v3; HuSIRPβ1v3
In short: as §1

[9] = target: T9, cynomolgus SIRPα extracellular domain + His-tag (NP_001271679) (cynomolgus monkey); test: SPR, Ab captured, ECD-His analyte
T9 construct: also called CySIRPα NP_001271679; cynoSIRPα
T9 chain: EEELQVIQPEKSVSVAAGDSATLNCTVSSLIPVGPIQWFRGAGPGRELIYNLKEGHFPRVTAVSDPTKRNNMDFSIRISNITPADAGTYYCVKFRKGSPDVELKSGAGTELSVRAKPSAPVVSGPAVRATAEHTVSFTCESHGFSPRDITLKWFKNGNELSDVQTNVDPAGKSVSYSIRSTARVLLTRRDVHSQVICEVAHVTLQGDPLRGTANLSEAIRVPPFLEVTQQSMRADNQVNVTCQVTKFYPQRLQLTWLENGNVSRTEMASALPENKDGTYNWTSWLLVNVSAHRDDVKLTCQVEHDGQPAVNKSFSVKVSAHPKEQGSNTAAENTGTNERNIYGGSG
Protocol: (§2) The binding affinity of anti-SIRPα antibodies to the various SIRPα analytes is determined by surface plasmon resonance (SPR) using a ProteOn XPR36 (Bio-Rad). The running buffer for this experiment and all dilutions (except where stated) are done in 1×HBS-EP+. […] The sensorchip is deactivated with 1M ethanolamine HCl for 420 sec at a flowrate of 10 μl/min.
(§3) The analyte is injected over the captured antibody for 300 sec at a flowrate of 30 μl/min. The dissociation is done for 600 sec. Two-fold serial dilutions of each SIRP protein (Extracellular Domain+His-Tag) are injected as analyte with the highest concentrations indicated in table 36 below.

[10] = target: T10, mouse SIRPα extracellular domain + His-tag (NP_031573) (mouse, UniProt P97797 32-373); test: SPR, Ab captured, ECD-His analyte
T10 chain: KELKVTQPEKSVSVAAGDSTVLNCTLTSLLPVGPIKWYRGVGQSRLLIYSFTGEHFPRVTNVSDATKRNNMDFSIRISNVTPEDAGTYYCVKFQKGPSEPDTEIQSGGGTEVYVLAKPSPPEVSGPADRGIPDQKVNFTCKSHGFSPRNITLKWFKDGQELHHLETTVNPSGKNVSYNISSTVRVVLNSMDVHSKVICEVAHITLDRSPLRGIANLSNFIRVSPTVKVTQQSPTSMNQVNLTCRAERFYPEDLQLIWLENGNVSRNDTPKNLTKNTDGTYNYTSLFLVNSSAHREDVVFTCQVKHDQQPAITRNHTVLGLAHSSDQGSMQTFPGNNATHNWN
Protocol: as §2, §3

[11] = target: T11, cynomolgus SIRPα extracellular domain + His-tag (EGM_02252) (cynomolgus monkey); test: SPR, Ab captured, ECD-His analyte
T11 construct: also called CySIRPα EGM_02252; cynoSIRPα
T11 chain: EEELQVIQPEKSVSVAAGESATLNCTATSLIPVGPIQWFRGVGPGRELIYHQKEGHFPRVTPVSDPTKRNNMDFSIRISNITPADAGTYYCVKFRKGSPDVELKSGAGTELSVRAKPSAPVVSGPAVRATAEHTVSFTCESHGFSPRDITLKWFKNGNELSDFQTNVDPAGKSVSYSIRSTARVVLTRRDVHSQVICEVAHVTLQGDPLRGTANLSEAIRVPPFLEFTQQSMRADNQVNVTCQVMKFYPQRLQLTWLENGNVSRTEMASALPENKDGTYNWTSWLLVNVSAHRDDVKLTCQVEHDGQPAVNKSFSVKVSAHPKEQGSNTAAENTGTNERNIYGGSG
Protocol: as §2, §3

[12] = target: T12, cynomolgus SIRPβ1v3 extracellular domain + His-tag (XP_005568593) (cynomolgus monkey); test: SPR, Ab captured, ECD-His analyte
T12 construct: also called Cyno SIRPβ1v3; cynoSIRPβ1v3
T12 chain: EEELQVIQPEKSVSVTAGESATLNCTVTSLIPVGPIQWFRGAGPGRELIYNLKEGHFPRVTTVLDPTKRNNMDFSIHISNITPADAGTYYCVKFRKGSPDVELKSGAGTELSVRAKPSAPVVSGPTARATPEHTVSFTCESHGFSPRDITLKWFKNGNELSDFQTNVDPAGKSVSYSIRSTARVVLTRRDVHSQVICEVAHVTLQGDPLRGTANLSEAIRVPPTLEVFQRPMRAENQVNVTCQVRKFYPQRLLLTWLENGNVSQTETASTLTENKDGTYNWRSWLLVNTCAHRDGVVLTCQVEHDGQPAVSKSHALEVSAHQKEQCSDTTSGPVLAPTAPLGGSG
Protocol: as §2, §3

[13] = target: T13, full-length human SIRPβL (NP_001129316.1) on cells (human, UniProt Q5TFQ8 30-398); test: flow cytometry, U937 SIRPα KO cells
T13 construct: on U937 SIRPα KO cells and Expi-CHO cells; also called βL WT; SIRPβ1v3
Protocol: Antibody binding to cells expressing full-length human SIRPβ1 (NP_006056.2) and SIRPβL (NP_001129316.1) is evaluated by flow cytometry. SIRPβ1- or SIRPβL-expressing U937^{SIRPα KO} cells are blocked with donkey IgG and incubated on ice with increasing concentrations of antibodies for 60 minutes, washed and stained with AF647-conjugated donkey F(ab′)₂ anti-human IgG secondary reagent. Cells are washed, fixed, and analyzed by flow cytometry. Median fluorescent intensity is determined and used as a measure of antibody binding.

[14] = target: T14, full-length human SIRPγ (NP_061026.2) on cells (human, UniProt Q9P1W8 29-387); test: flow cytometry, primary human CD3+ T cells
T14 construct: on CHO and Expi-CHO cells; endogenous on primary human CD3+ T cells; also called γ WT
Protocol: Antibody binding to primary human T cells expressing endogenous SIRPγ is evaluated by flow cytometry. Human peripheral blood mononuclear cells (PBMCs) are blocked with donkey IgG and incubated on ice with increasing concentrations of antibody for 60 minutes, washed and stained with AF647-conjugated donkey F(ab′)₂ anti-human IgG secondary reagent. […] Cells are washed, fixed, and analyzed by flow cytometry. Median fluorescent intensity of CD3+ gated population is determined and used as a measure of antibody binding.

[15] = target: T15, SIRPαV2 domain 1 (amino acids 31-148) with N-terminal GST tag (human, UniProt Q5TFQ8 30-148); test: crystal structure
T15 construct: also called domain 1 of the extracellular domain of human SIRPα-V2
Protocol: Protein was expressed in Origami B(DE3) cells and purified using standard protocols for GST-tagged proteins. Fractions were analyzed by SDS-PAGE and fractions containing the desired protein were pooled and concentrated to 24 mg/ml in 25 mM HEPES; 100 mM NaCl; 5% Glycerin; pH 7,0.

T8 sequence (Q5TFQ8 other isoform, or with tags, fused parts or gaps): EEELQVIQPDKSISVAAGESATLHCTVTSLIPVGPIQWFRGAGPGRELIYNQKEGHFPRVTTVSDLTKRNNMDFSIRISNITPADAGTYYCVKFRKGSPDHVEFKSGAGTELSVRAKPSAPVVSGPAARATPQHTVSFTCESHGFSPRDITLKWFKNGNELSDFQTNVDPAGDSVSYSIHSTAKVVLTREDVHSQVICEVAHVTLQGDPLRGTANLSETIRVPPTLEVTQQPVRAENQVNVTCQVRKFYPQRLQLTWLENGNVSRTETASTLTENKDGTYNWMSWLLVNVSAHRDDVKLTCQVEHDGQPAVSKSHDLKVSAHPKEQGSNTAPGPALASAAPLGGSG
T7 sequence (O00241 other isoform, or with tags, fused parts or gaps): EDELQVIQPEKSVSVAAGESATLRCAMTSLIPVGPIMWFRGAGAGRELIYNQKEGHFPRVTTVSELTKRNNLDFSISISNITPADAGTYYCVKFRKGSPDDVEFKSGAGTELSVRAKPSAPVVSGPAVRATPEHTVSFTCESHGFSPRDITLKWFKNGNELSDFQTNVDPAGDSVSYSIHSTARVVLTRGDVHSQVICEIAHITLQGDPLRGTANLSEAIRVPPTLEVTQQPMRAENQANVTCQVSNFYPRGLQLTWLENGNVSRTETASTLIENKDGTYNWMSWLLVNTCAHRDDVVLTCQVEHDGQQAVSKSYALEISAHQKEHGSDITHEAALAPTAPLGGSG
T13 sequence (Q5TFQ8 30-398): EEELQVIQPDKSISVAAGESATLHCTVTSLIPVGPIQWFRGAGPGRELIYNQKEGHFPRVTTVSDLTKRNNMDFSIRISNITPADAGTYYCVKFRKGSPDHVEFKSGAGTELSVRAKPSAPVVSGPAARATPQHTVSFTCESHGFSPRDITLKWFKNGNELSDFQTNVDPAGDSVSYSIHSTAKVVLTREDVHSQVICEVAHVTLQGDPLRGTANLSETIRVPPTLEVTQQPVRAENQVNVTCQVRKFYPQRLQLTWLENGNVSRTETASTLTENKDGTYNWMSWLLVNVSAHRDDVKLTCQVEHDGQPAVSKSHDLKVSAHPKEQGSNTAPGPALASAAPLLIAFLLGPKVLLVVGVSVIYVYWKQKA
T14 sequence (Q9P1W8 29-387): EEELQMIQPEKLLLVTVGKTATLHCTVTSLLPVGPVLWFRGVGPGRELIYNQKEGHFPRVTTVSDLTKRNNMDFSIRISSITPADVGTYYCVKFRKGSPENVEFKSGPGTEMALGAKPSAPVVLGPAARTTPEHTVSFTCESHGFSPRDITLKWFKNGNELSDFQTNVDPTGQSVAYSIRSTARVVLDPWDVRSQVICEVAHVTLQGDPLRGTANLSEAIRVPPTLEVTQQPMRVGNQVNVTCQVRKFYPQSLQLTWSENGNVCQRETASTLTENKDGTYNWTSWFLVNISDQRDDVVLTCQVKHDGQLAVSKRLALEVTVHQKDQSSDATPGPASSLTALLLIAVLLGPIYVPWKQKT
T6 sequence (Q9P1W8 29-360): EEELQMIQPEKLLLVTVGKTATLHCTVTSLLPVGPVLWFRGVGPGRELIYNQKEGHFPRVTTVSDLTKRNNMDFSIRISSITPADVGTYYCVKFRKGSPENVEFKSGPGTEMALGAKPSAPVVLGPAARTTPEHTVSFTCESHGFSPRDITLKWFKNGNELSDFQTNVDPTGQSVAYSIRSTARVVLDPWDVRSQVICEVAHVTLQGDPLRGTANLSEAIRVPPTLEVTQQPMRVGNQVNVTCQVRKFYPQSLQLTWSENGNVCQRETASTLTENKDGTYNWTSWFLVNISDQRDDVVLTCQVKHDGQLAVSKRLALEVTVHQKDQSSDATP
T15 sequence (Q5TFQ8 other isoform, or with tags, fused parts or gaps): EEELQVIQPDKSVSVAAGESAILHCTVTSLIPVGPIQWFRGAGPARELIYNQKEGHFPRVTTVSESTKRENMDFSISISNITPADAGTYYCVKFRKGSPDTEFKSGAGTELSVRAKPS

B1: Antibody E16 (antibody, human IgG1, kappa, L234A L235A, V domains shown)
VH: QVQLQESGPGLVRPSETLSLTCTVSGGSIRNYYWSWIRQPPGKGLEWIGFIYYNGRTFYNPSLKSRVTISLDTSKNQFSLKMTSVTAADTAVYYCARVRAYSGIGLDGTDVWGQGTTVTVSS
VL: DIVMTQSPLSLPVTPGEPASISCKSSQSLLYSNAYNYLDWYLQRPGQSPQLLIYLGSNRASGVPDRFSGSGSGTDFTLKISRVEAEDVGVYYCMQALQTPLTFGGGTKVEIKR
Kd [1]: 30.3 nM
Kd [2]: 50.3 nM
binding result [3]: no binding (tested: 1000 nM)
binding result [4]: no binding (tested: 1000 nM)
binding result [5]: no binding (tested: 1000 nM)

B2: Antibody F (antibody, human IgG4 S228P, kappa)
heavy: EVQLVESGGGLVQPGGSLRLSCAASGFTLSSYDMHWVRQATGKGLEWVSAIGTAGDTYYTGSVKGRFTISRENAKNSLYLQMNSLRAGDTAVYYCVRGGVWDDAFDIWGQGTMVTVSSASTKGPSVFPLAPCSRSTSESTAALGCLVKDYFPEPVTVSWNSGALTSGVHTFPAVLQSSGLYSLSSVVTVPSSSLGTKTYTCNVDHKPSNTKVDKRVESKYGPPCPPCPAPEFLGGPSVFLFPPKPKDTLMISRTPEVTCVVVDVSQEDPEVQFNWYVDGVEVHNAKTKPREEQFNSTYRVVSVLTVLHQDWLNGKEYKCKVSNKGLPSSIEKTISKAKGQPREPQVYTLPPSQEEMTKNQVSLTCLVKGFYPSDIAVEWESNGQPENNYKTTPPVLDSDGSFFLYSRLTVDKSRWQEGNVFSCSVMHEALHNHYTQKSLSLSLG
light: DIQMTQSPSSLSASVGDRVTITCRASQDINNYLAWFQQKPGKAPKSLIYTASSLHSGVPSKFSGSGSGTDFTLTISSLQPEDFATYYCQQYVSYPYTFGQGTKLEIKRTVAAPSVFIFPPSDEQLKSGTASVVCLLNNFYPREAKVQWKVDNALQSGNSQESVTEQDSKDSTYSLSSTLTLSKADYEKHKVYACEVTHQGLSSPVTKSFNRGEC
binding result [6]: no binding (tested: 1000 nM)
Kd [7]: 84 nM
binding result [8]: no binding (tested: 100 nM)
Kd [9]: 506 nM
binding result [10]: no binding
Kd [11]: 230 nM
Kd [12]: 227 nM
binding result [13]: no binding
binding result [14]: no binding

B3: Fab fragment of Antibody A (Fab, V domains shown)
VH: EVQLVESGGGLVQPGGSLRLSCAASGFTLSSYDMHWVRQATGKGLEWVSAIGTAGDTYYTGSVKGRFTISRENAKNSLYLQMNSLRAGDTAVYYCVRGGVWDDAFDIWGQGTMVTVSS
VL: DIQMTQSPSSLSASVGDRVTITCRASQDINNYLAWFQQKPGKAPKSLIYTASSLHSGVPSKFSGSGSGTDFTLTISSLQPEDFATYYCQQYVSYPYTFGQGTKLEIK
notes: Fab; also called Fab of Antibody A
binding result [15]: binds
